The text below walks through data of doi:10.1101/2023.01.16.523357.

Assay [1] concerns the target ΔN15MsDps2 (MsDps2 with the first 15 N-terminal amino acids deleted) (Mycobacterium smegmatis). The experiment in a line: negative-stain electron microscopy.
In assay [2] the target is Mycobacterium smegmatis Dps2 (MsDps2), wild type (Mycobacterium smegmatis). The assay is described as follows: SEC.

The substance “ΔN15MsDps2 (MsDps2 with the first 15 N-terminal amino acids deleted) (domain or fragment)” displayed a stoichiometry N in assay [1] of 12.

“Mycobacterium smegmatis Dps2 (MsDps2), wild type (natural protein)” displayed a stoichiometry N in assay [2] of 12.
